In US7429646:

Molecular target: its ligand (ligand of TR2, not identified)
Experiment: cell-based or functional assay

allogeneic MLR-mediated proliferation of PBMC ([3H]-thymidine incorporation): < 53%
Substance: TR2-Fc fusion protein (TR2 extracellular domain fused to human IgG1 Fc, pcDNA3, NIH 3T3) (from UniProt Q92956 37-200)
